The target in series [1] is HYDIN (mouse (endogenous in mouse sperm)) (UniProt Q80W93). Nature of the series: cryo-EM structure.
The series “cryo-EM structure” deals with the molecule itself. In words: cryo-EM structure.

Five molecules from article doi:10.1101/2024.08.06.606614 (bioRxiv, 2024) can be followed below.

What is called stoichiometry N is a count of units in the complex or per binding partner.

In turn, HYDIN, Q80W93 1-5154 returned a stoichiometry N in series [1] of 3.

B1: SPAG16 (natural protein)
chain: MAAPSGVPPLRVLEELGIGLSPTGEVTEAVTSEGAYYLEQVTITETSEDECEYEEIPDDNFSIPEGEEDLEKAIHIIGEQARDIHILEQQTILPARNVMQEAIEDFLCNFLIKMGMTRTLDCFQAEWYELIQKKGSDFKGLGNVPDVYSQVMLLETENKNLKKELKHFKQAAEKAKEDLLRTQKERDFHRMHHKRIVQEKNKLIADLKGLKLHYASYEPTIRVLHEKHHALLKEKMLTSLERDRAVGKISGLQATLKNIDMGHIQVPVIKGSYESASITRESGDRAGHSCEKENSSEGPTQKSLREAREEVGYKSKLKNEKKDSEFPVDMQPDPNVTSCTENVSAAKFDYKLNNIFRLHELPVSCIVMHPCRDYLISCSEDRLWKMVGLPQGNVLLTGSGHTDWLSGCCFHPSGSKLATSSGDSTIKLWDLNKGECTLTLEGHNHAVWSCTWHSCGDFVASASLDMTSKIWDVNSERCRYTLYGHTDSVNSIEFFPFSNILLTASADKTLSVWDARTGKCEQSLYGHMHSVNDATFTPRGHIIASCDARGVTKLWDFRKLIPIVSIDVGPSSGNEVNFDQSGRVLAQASANGIIHLLDLKSGQIHKLVGHESEVHSVVFSHLGENLYSGGSDGTIRLWI
B1: the “stoichiometry N” value in “cryo-EM structure” is 2.

B2: GOT1L1 (putative aspartate aminotransferase) (natural protein)
chain: MTSLSVFRDVPTAQKLEGSLLKIYRQDGYPSKLFLAYKVCMTEEGHPWVSLVVHKTRLQIAEDPSLDYEYLPLVGLKSFIQSSLELLFGKHSEAIAEKRVGGVHIVGESGAFQLGAQFLKTWRKNVKIVCIVSCQKEQCGLIFQDMGFIVYEYSIWNASDLCSDPSMFVEVLQHIPVGSILVIGNITDCKFTQNQWTKLMSIIKSKQIFPFFDIPCQGLSTGDLEEDTKILQYFVSLGLEFFCSQSLSKNFGIYDEGVGILVVAALSNQHLLCVLSQLMDYVQALWGNPPATGARIITSILCNPALFGEWKQSLKGVVENMMLIKEKVKEKLRLLGTPGSWDHITRQSGTHGYLGLTYQQVEFLVKKKHIYLPKTSRINFTCINARNIDYITQSIHEAVMLTEG
Consider B2, for which the “stoichiometry N” value in “cryo-EM structure” came to 2.

B3: CFAP70 (natural protein)
chain: MDQTSSTTKIVHITVTNGYDLKGFKGDTPVTFVRAEFNQTVLGDSSKVTVSPEGTAKYNFTSNIDLSPDGGGALDDLAHKPLFLTVTEVLPKEKKQKDEKTLILGQAVVDLLPLLEGEESFETTVPLHPVPGSPLETPLPGSKQCSLDVKVFVAEPLLTPAQVSASNLLKVTLEAAYSVPESFIPVGPQQNYMVGLQVPSVGEKDYTMIFKNGNLKLGGEKEPVPRPKKWPIANILAPGASNIPDEFIVGGPYEEEEGELNHPEDREFRNQAECTKKRIVWDLESRCFLHPFAVASFQKRIADCRLWPVEITRVPLVVMPKAKPGKLEKIDDENQLSFHGVAYINMVPLLYPGVKKIRGAFHVYPYLDGTVFEKTKCLFSLFRDTGHHLVQNNKAGGLNSPLSKPLSKNLKEEKPGKDKDTEGRPRLGELQAPSIKSQSSDTPLESEAPLSHNLEGQQYIEAGTYIVLEIQLEKALVPKRMPEELARRVKEMIPPRPPLTRRTGGAQKAVSDYHTQIKSISRAILNEYYRMFGKQGPKLESDIDNETMEERKCQLNYELNCSGKYFAFKEQLKHAVVKIVREKYLKTTAFESQEELQTFISELYVFLVDQMHVALNQAVPDDVPSSTSTIQTSSEQLRLFAFEAEVNEKFEIAAMYYEERLVREPQNLENWLDYGAFCLLTEDNIKAQECFRKALSLNESHVDSLLLCGVLAILLENYEQAEIFFEDATCLEPTNVIAWTLLGLFYEIQNNDIRMEMAFHEAFKQLQARTLQTKLKSTVTIENMEEGVKVEPSFGPWGVVQESTTAIKTEGLSGMRPQSSHQLSPHTNMELHPQPQGPNTALSSLDEFLEESPKAQSESQEPMATGQPLEPSLVQRSSNALLKELTSKKDISKCQDSSAFSPPTQHVIAQPPVTIFMETIRFLMKVNAVQFVHRVLAHELLCPQGGPSCEYYLVLAQTHLLKKDFAKTEEYLQQAAQMDYLNPNVWGVKGHLYFLSGNHAEAKECYERTISFVVDASEMHFIFLRLGHIYLEEKEYENAKRTYMHACKRSPSCLTWLGLGIACYRLEELTEAEDALSEANALNNCNAEVWAYLALVCLKVGRQLEAEQAYKYTIKLKLKDQALLEEIHTVQEMVGFGNPSF
For the molecule B3, in “cryo-EM structure”, the “stoichiometry N” value amounted to 2.

B4: germ cell-less 1 (GMCL1) (natural protein)
chain: MGALSSRVLRPAGRTEQPEPTPGAGGAARRSDAGEDAGHSFCYCPGGRKRKRSSGTFCYCHPDSETDDDEDEGDEQQRLLNTPRRKKLKSTSKYIYQTLFLNGENSDIKICALGEEWSLHKIYLCQSGYFSSMFSGSWKESSMNIIELEIPDQNIDIEALQVAFGSLYRDDVLIKPSRVVAILAAACMLQLDGLIQQCGETMKETISVRTVCGYYTSAGTYGLDSVKKKCLEWLLNNLMTHQSVELFKELSINVMKQLIGSSNLFVMQVEMDVYTALKKWMFLQLVPSWNGSLKQLLTETDVWFSKWKKDFEGTTFLETEQGKPFAPVFRHLRLQYIISDLASARIIEQDSLVPSEWLAAVYKQQWLAMLRAEQDSEVGPQEINKEELEGNSMRCGRKLAKDGEYCWRWTGFNFGFDLLVTYTNRYIIFKRNTLNQPCSGSVSLQPRRSIAFRLRLASFDSSGKLICSRATGYQILTLEKDQEQVVMNLDSRLLIFPLYICCNFLYISPEKRTESNRHPENPGH
In the case of B4, the “stoichiometry N” value in “cryo-EM structure” was 2.
